B1: SMCHD1(24–580/E147A), seleno-methionine-labeled (domain or fragment, human, UniProt A6NHR9 24-580, looked up)
chain: GHRTVYLFDRREKESELGDRPLQVGERSDYAGFRACVCQTLGISPEEKFVITTTSRKEITCDNFDETVKDGVTLYLLQSVNQLLLTATKERIDFLPHYDTLVKSGMYEYYASEGQNPLPFALAALIDNSLSATSRNIGVRRIQIKLLFDETQGKPAVAVIDNGRGMTSKQLNNWAVYRLSKFTRQGDFESDHSGYVRPVPVPRSLNSDISYFGVGGKQAVFFVGQSARMISKPADSQDVHELVLSKEDFEKKEKNKEAIYSGYIRNRKPSDSVHITNDDERFLHHLIIEEKEKDSFTAVVITGVQPEHIQYLKNYFHLWTRQLAHIYHYYIHGPKGNEIRTSKEVEPFNNIDIEISMFEKGKVPKIVNLREIQDDMQTLYVNTAADSFEFKAHVEGDGVVEGIIRYHPFLYDRETYPDDPCFPSKLKDEDDEDDCFILEKAARGKRPIFECFWNGRLIPYTSVEDFDWCTPPKKRGLAPIECYNRISGALFTNDKFQVSTNKLTFMDLELKLKDKNTLFTRILNGQEQRMKIDREFALWLKDCHEKYDKQIKFTLFK
modifications: selenomethionine substituted for methionine
notes: Crystallised as a homodimer with one ATP per monomer; two homodimers in the asymmetric unit; also called SMCHD1 E147A; source: E. coli B834(DE3), purified (glutathione resin, TEV cleavage, Superdex200 with Mg2+/ATP, MonoQ)
B2: SMCHD1(24–580) Q345R (domain or fragment, human, UniProt A6NHR9 24-580, looked up)
chain: GHRTVYLFDRREKESELGDRPLQVGERSDYAGFRACVCQTLGISPEEKFVITTTSRKEITCDNFDETVKDGVTLYLLQSVNQLLLTATKERIDFLPHYDTLVKSGMYEYYASEGQNPLPFALAELIDNSLSATSRNIGVRRIQIKLLFDETQGKPAVAVIDNGRGMTSKQLNNWAVYRLSKFTRQGDFESDHSGYVRPVPVPRSLNSDISYFGVGGKQAVFFVGQSARMISKPADSQDVHELVLSKEDFEKKEKNKEAIYSGYIRNRKPSDSVHITNDDERFLHHLIIEEKEKDSFTAVVITGVQPEHIQYLKNYFHLWTRRLAHIYHYYIHGPKGNEIRTSKEVEPFNNIDIEISMFEKGKVPKIVNLREIQDDMQTLYVNTAADSFEFKAHVEGDGVVEGIIRYHPFLYDRETYPDDPCFPSKLKDEDDEDDCFILEKAARGKRPIFECFWNGRLIPYTSVEDFDWCTPPKKRGLAPIECYNRISGALFTNDKFQVSTNKLTFMDLELKLKDKNTLFTRILNGQEQRMKIDREFALWLKDCHEKYDKQIKFTLFK
notes: SMCHD1, human, residues 24-580 with the arhinia variant Q345R; PDB 6MW7 holds the same limits with E147A; Human disease variant (arhinia); also called p.Q345R; source: E. coli Rosetta2(DE3), purified (Glutathione 4B Sepharose, TEV cleavage, Superdex200)
B3: SMCHD1(24–580) T523K (domain or fragment, human, UniProt A6NHR9 24-580, looked up)
chain: GHRTVYLFDRREKESELGDRPLQVGERSDYAGFRACVCQTLGISPEEKFVITTTSRKEITCDNFDETVKDGVTLYLLQSVNQLLLTATKERIDFLPHYDTLVKSGMYEYYASEGQNPLPFALAELIDNSLSATSRNIGVRRIQIKLLFDETQGKPAVAVIDNGRGMTSKQLNNWAVYRLSKFTRQGDFESDHSGYVRPVPVPRSLNSDISYFGVGGKQAVFFVGQSARMISKPADSQDVHELVLSKEDFEKKEKNKEAIYSGYIRNRKPSDSVHITNDDERFLHHLIIEEKEKDSFTAVVITGVQPEHIQYLKNYFHLWTRQLAHIYHYYIHGPKGNEIRTSKEVEPFNNIDIEISMFEKGKVPKIVNLREIQDDMQTLYVNTAADSFEFKAHVEGDGVVEGIIRYHPFLYDRETYPDDPCFPSKLKDEDDEDDCFILEKAARGKRPIFECFWNGRLIPYTSVEDFDWCTPPKKRGLAPIECYNRISGALFTNDKFQVSKNKLTFMDLELKLKDKNTLFTRILNGQEQRMKIDREFALWLKDCHEKYDKQIKFTLFK
notes: SMCHD1, human, residues 24-580 with the arhinia variant T523K; PDB 6MW7 holds the same limits with E147A; Human disease variant (arhinia); also called p.T523K; source: E. coli Rosetta2(DE3), purified (Glutathione 4B Sepharose, TEV cleavage, Superdex200)
B4: SMCHD1(24–580) N139H (domain or fragment, human, UniProt A6NHR9 24-580, looked up)
chain: GHRTVYLFDRREKESELGDRPLQVGERSDYAGFRACVCQTLGISPEEKFVITTTSRKEITCDNFDETVKDGVTLYLLQSVNQLLLTATKERIDFLPHYDTLVKSGMYEYYASEGQHPLPFALAELIDNSLSATSRNIGVRRIQIKLLFDETQGKPAVAVIDNGRGMTSKQLNNWAVYRLSKFTRQGDFESDHSGYVRPVPVPRSLNSDISYFGVGGKQAVFFVGQSARMISKPADSQDVHELVLSKEDFEKKEKNKEAIYSGYIRNRKPSDSVHITNDDERFLHHLIIEEKEKDSFTAVVITGVQPEHIQYLKNYFHLWTRQLAHIYHYYIHGPKGNEIRTSKEVEPFNNIDIEISMFEKGKVPKIVNLREIQDDMQTLYVNTAADSFEFKAHVEGDGVVEGIIRYHPFLYDRETYPDDPCFPSKLKDEDDEDDCFILEKAARGKRPIFECFWNGRLIPYTSVEDFDWCTPPKKRGLAPIECYNRISGALFTNDKFQVSTNKLTFMDLELKLKDKNTLFTRILNGQEQRMKIDREFALWLKDCHEKYDKQIKFTLFK
notes: SMCHD1, human, residues 24-580 with the arhinia variant N139H; PDB 6MW7 holds the same limits with E147A; Human disease variant (arhinia); also called p.N139H; source: E. coli Rosetta2(DE3), purified (Glutathione 4B Sepharose, TEV cleavage, Superdex200)
B5: SMCHD1(24–580) S135C (domain or fragment, human, UniProt A6NHR9 24-580, looked up)
chain: GHRTVYLFDRREKESELGDRPLQVGERSDYAGFRACVCQTLGISPEEKFVITTTSRKEITCDNFDETVKDGVTLYLLQSVNQLLLTATKERIDFLPHYDTLVKSGMYEYYACEGQNPLPFALAELIDNSLSATSRNIGVRRIQIKLLFDETQGKPAVAVIDNGRGMTSKQLNNWAVYRLSKFTRQGDFESDHSGYVRPVPVPRSLNSDISYFGVGGKQAVFFVGQSARMISKPADSQDVHELVLSKEDFEKKEKNKEAIYSGYIRNRKPSDSVHITNDDERFLHHLIIEEKEKDSFTAVVITGVQPEHIQYLKNYFHLWTRQLAHIYHYYIHGPKGNEIRTSKEVEPFNNIDIEISMFEKGKVPKIVNLREIQDDMQTLYVNTAADSFEFKAHVEGDGVVEGIIRYHPFLYDRETYPDDPCFPSKLKDEDDEDDCFILEKAARGKRPIFECFWNGRLIPYTSVEDFDWCTPPKKRGLAPIECYNRISGALFTNDKFQVSTNKLTFMDLELKLKDKNTLFTRILNGQEQRMKIDREFALWLKDCHEKYDKQIKFTLFK
notes: SMCHD1, human, residues 24-580 with the arhinia variant S135C; PDB 6MW7 holds the same limits with E147A; Human disease variant (arhinia); also called p.S135C; source: E. coli Rosetta2(DE3), purified (Glutathione 4B Sepharose, TEV cleavage, Superdex200)
B6: SMCHD1(24–580) G137E (domain or fragment, human, UniProt A6NHR9 24-580, looked up)
chain: GHRTVYLFDRREKESELGDRPLQVGERSDYAGFRACVCQTLGISPEEKFVITTTSRKEITCDNFDETVKDGVTLYLLQSVNQLLLTATKERIDFLPHYDTLVKSGMYEYYASEEQNPLPFALAELIDNSLSATSRNIGVRRIQIKLLFDETQGKPAVAVIDNGRGMTSKQLNNWAVYRLSKFTRQGDFESDHSGYVRPVPVPRSLNSDISYFGVGGKQAVFFVGQSARMISKPADSQDVHELVLSKEDFEKKEKNKEAIYSGYIRNRKPSDSVHITNDDERFLHHLIIEEKEKDSFTAVVITGVQPEHIQYLKNYFHLWTRQLAHIYHYYIHGPKGNEIRTSKEVEPFNNIDIEISMFEKGKVPKIVNLREIQDDMQTLYVNTAADSFEFKAHVEGDGVVEGIIRYHPFLYDRETYPDDPCFPSKLKDEDDEDDCFILEKAARGKRPIFECFWNGRLIPYTSVEDFDWCTPPKKRGLAPIECYNRISGALFTNDKFQVSTNKLTFMDLELKLKDKNTLFTRILNGQEQRMKIDREFALWLKDCHEKYDKQIKFTLFK
notes: SMCHD1, human, residues 24-580 with the variant G137E (implicated in both arhinia and FSHD2); PDB 6MW7 holds the same limits with E147A; Human disease variant (arhinia and FSHD2); also called p.G137E; source: E. coli Rosetta2(DE3), purified (Glutathione 4B Sepharose, TEV cleavage, Superdex200)
B7: SMCHD1(24–580) H348R (domain or fragment, human, UniProt A6NHR9 24-580, looked up)
chain: GHRTVYLFDRREKESELGDRPLQVGERSDYAGFRACVCQTLGISPEEKFVITTTSRKEITCDNFDETVKDGVTLYLLQSVNQLLLTATKERIDFLPHYDTLVKSGMYEYYASEGQNPLPFALAELIDNSLSATSRNIGVRRIQIKLLFDETQGKPAVAVIDNGRGMTSKQLNNWAVYRLSKFTRQGDFESDHSGYVRPVPVPRSLNSDISYFGVGGKQAVFFVGQSARMISKPADSQDVHELVLSKEDFEKKEKNKEAIYSGYIRNRKPSDSVHITNDDERFLHHLIIEEKEKDSFTAVVITGVQPEHIQYLKNYFHLWTRQLARIYHYYIHGPKGNEIRTSKEVEPFNNIDIEISMFEKGKVPKIVNLREIQDDMQTLYVNTAADSFEFKAHVEGDGVVEGIIRYHPFLYDRETYPDDPCFPSKLKDEDDEDDCFILEKAARGKRPIFECFWNGRLIPYTSVEDFDWCTPPKKRGLAPIECYNRISGALFTNDKFQVSTNKLTFMDLELKLKDKNTLFTRILNGQEQRMKIDREFALWLKDCHEKYDKQIKFTLFK
notes: SMCHD1, human, residues 24-580 with the arhinia variant H348R; PDB 6MW7 holds the same limits with E147A; Human disease variant (arhinia); also called p.H348R; source: E. coli Rosetta2(DE3), purified (Glutathione 4B Sepharose, TEV cleavage, Superdex200)
B8: SMCHD1(24–580) E473Q (domain or fragment, human, UniProt A6NHR9 24-580, looked up)
chain: GHRTVYLFDRREKESELGDRPLQVGERSDYAGFRACVCQTLGISPEEKFVITTTSRKEITCDNFDETVKDGVTLYLLQSVNQLLLTATKERIDFLPHYDTLVKSGMYEYYASEGQNPLPFALAELIDNSLSATSRNIGVRRIQIKLLFDETQGKPAVAVIDNGRGMTSKQLNNWAVYRLSKFTRQGDFESDHSGYVRPVPVPRSLNSDISYFGVGGKQAVFFVGQSARMISKPADSQDVHELVLSKEDFEKKEKNKEAIYSGYIRNRKPSDSVHITNDDERFLHHLIIEEKEKDSFTAVVITGVQPEHIQYLKNYFHLWTRQLAHIYHYYIHGPKGNEIRTSKEVEPFNNIDIEISMFEKGKVPKIVNLREIQDDMQTLYVNTAADSFEFKAHVEGDGVVEGIIRYHPFLYDRETYPDDPCFPSKLKDEDDEDDCFILEKAARGKRPIFQCFWNGRLIPYTSVEDFDWCTPPKKRGLAPIECYNRISGALFTNDKFQVSTNKLTFMDLELKLKDKNTLFTRILNGQEQRMKIDREFALWLKDCHEKYDKQIKFTLFK
notes: SMCHD1, human, residues 24-580 with the arhinia variant E473Q; PDB 6MW7 holds the same limits with E147A; Human disease variant (arhinia); also called p.E473Q; source: E. coli Rosetta2(DE3), purified (Glutathione 4B Sepharose, TEV cleavage, Superdex200)
B9: SMCHD1(24–580) E473G (domain or fragment, human, UniProt A6NHR9 24-580, looked up)
chain: GHRTVYLFDRREKESELGDRPLQVGERSDYAGFRACVCQTLGISPEEKFVITTTSRKEITCDNFDETVKDGVTLYLLQSVNQLLLTATKERIDFLPHYDTLVKSGMYEYYASEGQNPLPFALAELIDNSLSATSRNIGVRRIQIKLLFDETQGKPAVAVIDNGRGMTSKQLNNWAVYRLSKFTRQGDFESDHSGYVRPVPVPRSLNSDISYFGVGGKQAVFFVGQSARMISKPADSQDVHELVLSKEDFEKKEKNKEAIYSGYIRNRKPSDSVHITNDDERFLHHLIIEEKEKDSFTAVVITGVQPEHIQYLKNYFHLWTRQLAHIYHYYIHGPKGNEIRTSKEVEPFNNIDIEISMFEKGKVPKIVNLREIQDDMQTLYVNTAADSFEFKAHVEGDGVVEGIIRYHPFLYDRETYPDDPCFPSKLKDEDDEDDCFILEKAARGKRPIFGCFWNGRLIPYTSVEDFDWCTPPKKRGLAPIECYNRISGALFTNDKFQVSTNKLTFMDLELKLKDKNTLFTRILNGQEQRMKIDREFALWLKDCHEKYDKQIKFTLFK
notes: SMCHD1, human, residues 24-580 with the arhinia variant E473G; PDB 6MW7 holds the same limits with E147A; Human disease variant (arhinia); also called p.E473G; source: E. coli Rosetta2(DE3), purified (Glutathione 4B Sepharose, TEV cleavage, Superdex200)

Target: the molecule itself
Test: crystal structure; seleno-methionine protein at 8.5 mg/ml with 5 mM Mg2+/ATP, sitting drop; SAD phasing, 2.2 Å

Binding result, binds:
B1

Target: the molecule itself
Test: cross-linking; glutaraldehyde (final 0.0125%), protein at 2 mg/mL in 20 mM HEPES pH 7.5, 100 mM NaCl, 10% glycerol with 5 mM MgCl2 and 5 mM ATP, 40 min at room temperature, diluted 6.25-fold; SDS-PAGE

Binding result, binds:
B2

Target: the molecule itself
Test: native gel or EMSA; blue-native PAGE, 4–16% Bis-Tris; 2.2 µg/µl protein incubated with 5 mM MgCl2 and ATP 30 min on ice; 1 mM MgCl2 and 1 mM ATP in the running buffers; monomer and dimer bands quantified

Binding result, binds:
B3, B4, B5, B6, B7, B8, B9
